The results in this text go back to US20110105397A1, “METHOD FOR TREATING HEART FAILURE WITH STRESSCOPIN-LIKE PEPTIDES” (priority 2009, published 2011).

In one assay the target is T1, human CRHR2 (Homo sapiens, UniProt Q13324).
T1 construct: expressed in transfected cells
T1 sequence (Q13324 1-411): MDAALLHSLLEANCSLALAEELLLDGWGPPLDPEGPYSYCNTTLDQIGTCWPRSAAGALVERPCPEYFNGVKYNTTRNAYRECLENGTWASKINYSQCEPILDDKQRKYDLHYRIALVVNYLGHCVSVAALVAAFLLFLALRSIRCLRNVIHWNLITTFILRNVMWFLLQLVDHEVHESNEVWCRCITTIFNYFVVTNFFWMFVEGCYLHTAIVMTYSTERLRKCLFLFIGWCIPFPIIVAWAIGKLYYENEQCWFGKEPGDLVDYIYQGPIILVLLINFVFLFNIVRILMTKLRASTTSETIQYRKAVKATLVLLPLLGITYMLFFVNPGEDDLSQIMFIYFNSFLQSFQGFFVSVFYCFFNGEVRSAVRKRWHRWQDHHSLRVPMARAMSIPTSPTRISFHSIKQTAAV
Put plainly: cAMP assay, h-CRHR2 transfected SK-N-MC cells. Format: cell-based. The note with it: Table 13; for EC50: cysteine mutation, N-ethylmaleimide capping, pegylation, read-out: pA50 (converted); for Log DR [M]: h-SCP control pA50 minus test compound pA50 within the same assay batch. The protocol:
The concentration required for 50% maximum effect (A50) was 0.4 nM.
Human CRHR1 (accession number X72304) or CRHR2 (accession number U34587) were cloned into pcDNA3.1/Zeo expression vector and stably transfected into SK—N-MC cells by electroporation. Cells were maintained in MEM w/Earl's Salt with 10% FBS, 50 I.U. penicillin, 50 μg/ml streptomycin, 2 mM L-glutamine, 1 mM sodium pyruvate and 0.1 mM non-essential amino acids, 600 μg/ml G418. Cells were grown at 37° C. in 5% CO2
Cells were plated in 96-well tissue culture dishes (Biocoat from BD Biosciences) overnight at 50,000 cell/well. Cells were washed with PBS then resuspended in DMEM F-12 without phenol red, containing 10 μM isobutylmethylxanthine (IBMX). Cells were incubated with the peptides at concentrations ranging from 1 pM to 10 μM for 60 min at 37° Celsius. […] Forskolin (10 μM), a direct stimulant of adenylate cyclase, was used as positive control. The assays were stopped by the addition of 0.5 M HCl and mixing by orbital rotation for 2 h at 4° Celsius.
To assess the activity of the inventive polypeptide at the CRHR2, an intracellular cAMP measurement test using a Flash plate radioactive assay (Catalog No. Cus56088; Perkin Elmer, Mass., U.S.A.) was employed.
Transfected SK—N-MC cells were plated in 96-well Biocoat tissue culture dishes (BD Biosciences, San Jose, Calif., U.S.A) overnight at 50,000 cell/well. Cells were first washed with PBS and then suspended with DMEM/F-12 without phenol red, containing […]. Suspended cells were transferred into a 96-well flash plate coated with scintillant fluid. Cells were incubated with peptides ranging from 1 pM to 1 μM, for 60 min, at 37° Celsius. Forskolin at 10 μM was used as positive control. After ligand stimulation, cells were lysed by the addition of 0.5M HCl and mixed by orbital rotation for 2 h at 4° Celsius in order to release intracellular cAMP into the media.
Media containing released intracellular cAMP was transferred to a 96-well flash plate coated with scintillant fluid containing an anti-cAMP antibody. In this assay, intracellular cAMP competes with ^125I-labeled cAMP binding to the antibody. To generate a standard curve, cAMP ranging from 2.5 to 250 pmoles/ml was included in the experiment. [^125I]-cAMP was measured on a TopCount scintillation counter (Perkin Elmer, Mass., U.S.A).
Individual agonist concentration-response curve data were fitted to the Hill equation, see formula below, using GraphPad Prism (Graphpad Software, La Jolla, Calif., U.S.A.), to provide estimates of agonist concentration needed to generate one-half maximal response (A50), and the maximal asymptote (α) and Hill slope (nH) parameters. In this equation, [A] is the agonist concentration and E is the measured effect:
For display purposes the mean fitted parameter estimates were used to generate a single E/[A] curve shown superimposed on the mean experimental data. Potency estimates for agonists, pA50, are expressed as the negative logarithm of the midpoint of each curve and listed with their standard error of measurement (SEM). Logarithm base 10 of the agonist dose ratio (Log DR) values were calculated by subtraction of the test compound pA50 value from the corresponding h-SCP (SEQ ID NO:1) control pA50 value within the same assay batch. The SEM values of the Log DR values are given by the square root of the sum of the squared SEM values of the h-SCP (SEQ ID NO:1) control and test compound pA50 values.
Human and rat peptides (see Table 10) were used on the stimulation of h-CRHR1 or h-CRHR2 transfected SK—N-MC cells in the cAMP flash plate assay. Peptides were incubated for 1 hr at 37° Celsius. Curves were calculated using non-linear regression sigmoidal concentration-response analysis calculation in GraphPad Prism. The so obtained pA50 values are shown in Table 11 in addition to literature values. […]
In general terms: cAMP levels reflect the balance of adenylyl cyclase and phosphodiesterase activity.

For assay [1], the target named is T2, human corticotrophin releasing hormone receptor type 2 (CRHR2) (human, UniProt Q13324 1-411).
T2 sequence (looked up): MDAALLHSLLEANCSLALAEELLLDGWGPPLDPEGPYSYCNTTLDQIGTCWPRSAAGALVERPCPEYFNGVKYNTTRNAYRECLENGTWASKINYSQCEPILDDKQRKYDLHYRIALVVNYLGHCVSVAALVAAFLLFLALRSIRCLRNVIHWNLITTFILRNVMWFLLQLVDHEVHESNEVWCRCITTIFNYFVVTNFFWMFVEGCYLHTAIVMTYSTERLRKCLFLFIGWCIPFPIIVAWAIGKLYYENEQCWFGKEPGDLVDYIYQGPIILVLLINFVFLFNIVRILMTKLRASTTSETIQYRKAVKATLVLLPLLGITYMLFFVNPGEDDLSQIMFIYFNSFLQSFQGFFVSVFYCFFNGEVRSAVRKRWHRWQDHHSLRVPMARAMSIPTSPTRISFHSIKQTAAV
Put plainly: cell-based or functional assay.

Where no end group is shown, it is not given here. Where only a bound is given, the exact number is not on record here.

In the case of “TKFCLSLDVPTNIMNLLFNIAKAKNLRAQAAANAHLMAQI-NH2 [SEQ ID NO: 5, TKFCLSLDVPTNIMNLLFNIAKAKNLRAQAAANAHLMAQI-NH2]”, at human CRHR2, the EC50 is 1.17 nM and the “Log DR [M]” value turned out to be 0.76.

“TKFTLSLDVPTCIMNLLFNIAKAKNLRAQAAANAHLMAQI-NH2 [SEQ ID NO: 13, TKFTLSLDVPTCIMNLLFNIAKAKNLRAQAAANAHLMAQI-NH2]”: on human CRHR2, the EC50 is 0.257 nM and the “Log DR [M]” value is −0.01.

Consider “TKFTLSLDVPTNIMNLLFNIAKAKNLRAQAAACAHLMAQI-NH2 [SEQ ID NO: 34, TKFTLSLDVPTNIMNLLFNIAKAKNLRAQAAACAHLMAQI-NH2]”, for which, at human CRHR2, the EC50 was approximately 479 nM and the “Log DR [M]” value is given as more than 3.19.

Regarding “TKFTLSLDVPTNIMNLLFNIAKAKNLRAQAAANACLMAQI-NH2 [SEQ ID NO: 36, TKFTLSLDVPTNIMNLLFNIAKAKNLRAQAAANACLMAQI-NH2]”, on human CRHR2, the EC50 is 0.794 nM and the “Log DR [M]” value is 0.42.

For “TKFTLSLDVPTNIMNLLFNIAKAKNLRAQAAANAHCMAQI-NH2 [SEQ ID NO: 37, TKFTLSLDVPTNIMNLLFNIAKAKNLRAQAAANAHCMAQI-NH2]”, at human CRHR2, the EC50 was 2.63 nM and the “Log DR [M]” value is recorded as 1.05.

In the case of “TKFTLSLCVPTNIMNLLFNIAKAKNLRAQAAANAHLMAQI-NH2 [SEQ ID NO: 9, TKFTLSLCVPTNIMNLLFNIAKAKNLRAQAAANAHLMAQI-NH2]”, at human CRHR2, the EC50 was 15.8 nM and the “Log DR [M]” value worked out at 1.89.

For TKFTLSLDVPTNCMNLLFNIAKAKNLRAQAAANAHLMAQI-NH2 [Cys-variant stresscopin-like peptide SEQ ID NO: 14], in assay [1], the “Log DR” value was more than 2 log10 and the pA50 was ~7.34 -log10(M).

On to TKFTLSLDVPTNIMNLCFNIAKAKNLRAQAAANAHLMAQI-NH2 [Cys-variant stresscopin-like peptide SEQ ID NO: 18], for which, in assay [1], the “Log DR” value stood at 1.11 log10 and the pA50 was 8.41 -log10(M).

As to TKFTLSLDVPTCIMNLLFNIAKAKNLRAQAAANAHLMAQI-NH2 [Cys-variant stresscopin-like peptide SEQ ID NO: 13], in assay [1], the “Log DR” value was -0.01 log10 and the pA50 is 9.59 -log10(M).

As to TKFTLSLDVPTNIMNCLFNIAKAKNLRAQAAANAHLMAQI-NH2 [Cys-variant stresscopin-like peptide SEQ ID NO: 17], in assay [1], the “Log DR” value amounted to 0.02 log10 and the pA50 was 9.5 -log10(M).

As to TKFTLSLCVPTNIMNLLFNIAKAKNLRAQAAANAHLMAQI-NH2 [Cys-variant stresscopin-like peptide SEQ ID NO: 9], in assay [1], the “Log DR” value came out at 1.89 log10 and the pA50 is 7.8 -log10(M).

Regarding TKFTLSLDVPCNIMNLLFNIAKAKNLRAQAAANAHLMAQI-NH2 [Cys-variant stresscopin-like peptide SEQ ID NO: 12], in assay [1], the “Log DR” value was determined as 1.72 log10 and the pA50 is 7.86 -log10(M).

In the case of TKFTLSLDVPTNICNLLFNIAKAKNLRAQAAANAHLMAQI-NH2 [Cys-variant stresscopin-like peptide SEQ ID NO: 15], in assay [1], the “Log DR” value is 0.9 log10 and the pA50 is 8.68 -log10(M).

As for TKFTLSLDVPTNIMCLLFNIAKAKNLRAQAAANAHLMAQI-NH2 [Cys-variant stresscopin-like peptide SEQ ID NO: 16], in assay [1], the “Log DR” value is 0.76 log10 and the pA50 was 8.93 -log10(M).

In the case of TKFTLSCDVPTNIMNLLFNIAKAKNLRAQAAANAHLMAQI (NES-PEG (about 20 kDa) on Cys 7; C-terminal amide (-NH2)) [Pegylated Cys-variant stresscopin-like peptide with NES linker and PEG about 20 kDa SEQ ID NO: 61], in assay [1], the “Log DR” value is more than 3.32 log10 and the pA50 was ~6.22 -log10(M).

Regarding TKFTLSLDVPTNIMNCLFNIAKAKNLRAQAAANAHLMAQI (NES-PEG (about 20 kDa) on Cys 16; C-terminal amide (-NH2)) [Pegylated Cys-variant stresscopin-like peptide with NES linker and PEG about 20 kDa SEQ ID NO: 70], in assay [1], the “Log DR” value is approximately 2.07 log10 and the pA50 was ~7.34 -log10(M).

TKFTLSLDVPTNIMCLLFNIAKAKNLRAQAAANAHLMAQI (NES-PEG (about 20 kDa) on Cys 15; C-terminal amide (-NH2)) [Pegylated Cys-variant stresscopin-like peptide with NES linker and PEG about 20 kDa SEQ ID NO: 69]: in assay [1], the “Log DR” value stood at 2.09 log10 and the pA50 is 7.45 -log10(M).

Turning to TKFTLSLCVPTNIMNLLFNIAKAKNLRAQAAANAHLMAQI (NES-PEG (about 20 kDa) on Cys 8; C-terminal amide (-NH2)) [Pegylated Cys-variant stresscopin-like peptide with NES linker and PEG about 20 kDa SEQ ID NO: 62], in assay [1], the “Log DR” value is more than 3.48 log10 and the pA50 is ~6.06 -log10(M).

Regarding TKFTLSLDVPTNICNLLFNIAKAKNLRAQAAANAHLMAQI (NES-PEG (about 20 kDa) on Cys 14; C-terminal amide (-NH2)) [Pegylated Cys-variant stresscopin-like peptide with NES linker and PEG about 20 kDa SEQ ID NO: 68], in assay [1], the “Log DR” value is approximately 2.61 log10 and the pA50 was ~6.96 -log10(M).

Consider TKFTLSLDVPTCIMNLLFNIAKAKNLRAQAAANAHLMAQI (NES-PEG (about 20 kDa) on Cys 12; C-terminal amide (-NH2)) [Pegylated Cys-variant stresscopin-like peptide with NES linker and PEG about 20 kDa SEQ ID NO: 66], for which, in assay [1], the “Log DR” value was determined as 1.26 log10 and the pA50 was 8.31 -log10(M).

For TKFTLSLDVCTNIMNLLFNIAKAKNLRAQAAANAHLMAQI (NES-PEG (about 20 kDa) on Cys 10; C-terminal amide (-NH2)) [Pegylated Cys-variant stresscopin-like peptide with NES linker and PEG about 20 kDa SEQ ID NO: 64], in assay [1], the “Log DR” value was approximately 2.59 log10 and the pA50 is ~6.98 -log10(M).

TKFTLSLDVPTNCMNLLFNIAKAKNLRAQAAANAHLMAQI (NES-PEG (about 20 kDa) on Cys 13; C-terminal amide (-NH2)) [Pegylated Cys-variant stresscopin-like peptide with NES linker and PEG about 20 kDa SEQ ID NO: 67]: in assay [1], the “Log DR” value was more than 3 log10 and the pA50 is ~6.35 -log10(M).

On to TKFTLSLDCPTNIMNLLFNIAKAKNLRAQAAANAHLMAQI (NES-PEG (about 20 kDa) on Cys 9; C-terminal amide (-NH2)) [Pegylated Cys-variant stresscopin-like peptide with NES linker and PEG about 20 kDa SEQ ID NO: 63], for which, in assay [1], the “Log DR” value is approximately 2.12 log10 and the pA50 is ~7.45 -log10(M).

In the case of TKFTLSLDVPCNIMNLLFNIAKAKNLRAQAAANAHLMAQI (NES-PEG (about 20 kDa) on Cys 11; C-terminal amide (-NH2)) [Pegylated Cys-variant stresscopin-like peptide with NES linker and PEG about 20 kDa SEQ ID NO: 65], in assay [1], the “Log DR” value was approximately 2.75 log10 and the pA50 was ~6.82 -log10(M).

With TKFTLSLDCPTNIMNLLFNIAKAKNLRAQAAANAHLMAQI-NH2 [Cys-variant stresscopin-like peptide SEQ ID NO: 10], in assay [1], the “Log DR” value is 1.3 log10 and the pA50 is 8.28 -log10(M).

TKFTLSLDVCTNIMNLLFNIAKAKNLRAQAAANAHLMAQI-NH2 [Cys-variant stresscopin-like peptide SEQ ID NO: 11]: in assay [1], the “Log DR” value was 0.82 log10 and the pA50 is 8.76 -log10(M).
